Measurements as given in US20230192818A1.
Where “and” joins values, the source holds several entries; their conditions need not be identical. Identical values can stand only once.

Tests used:
[1] = target: FCGR 2b/c (UniProt P31994)
[2] = target: FcRn (UniProt P55899)
[3] = target: FCGR 3a (F 176) (UniProt P08637)
[4] = target: FCGR 3a (V 176) (UniProt P08637)
[5] = target: FCGR 2a (H 167) (UniProt P12318)
[6] = target: FCGR1 (UniProt P12314)
Chain of FCGR1 (P12314 16-288 limits assumed): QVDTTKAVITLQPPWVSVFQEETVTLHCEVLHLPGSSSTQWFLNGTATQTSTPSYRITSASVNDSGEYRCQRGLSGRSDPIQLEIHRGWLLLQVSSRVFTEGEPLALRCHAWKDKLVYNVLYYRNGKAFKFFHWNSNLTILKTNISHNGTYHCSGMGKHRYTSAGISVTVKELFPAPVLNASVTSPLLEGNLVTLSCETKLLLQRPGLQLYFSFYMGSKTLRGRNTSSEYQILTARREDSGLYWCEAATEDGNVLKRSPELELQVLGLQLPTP

Chain of FcRn (P55899 24-297 limits assumed, chain 1 of 2): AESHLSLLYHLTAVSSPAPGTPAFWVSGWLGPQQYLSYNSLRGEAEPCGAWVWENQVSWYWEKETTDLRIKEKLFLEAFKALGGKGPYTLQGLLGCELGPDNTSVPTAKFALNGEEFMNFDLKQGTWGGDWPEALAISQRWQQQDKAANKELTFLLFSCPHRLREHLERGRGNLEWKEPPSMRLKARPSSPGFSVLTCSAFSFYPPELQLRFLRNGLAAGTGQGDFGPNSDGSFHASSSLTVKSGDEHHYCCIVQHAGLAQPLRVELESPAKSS
Chain of FcRn (P61769 21-119 limits assumed, chain 2 of 2, further chain): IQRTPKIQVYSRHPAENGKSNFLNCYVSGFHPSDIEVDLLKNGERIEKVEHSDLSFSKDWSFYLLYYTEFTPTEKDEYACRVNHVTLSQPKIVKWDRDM
Chain of FCGR 3a (V 176) (P08637 17-208 F176V limits assumed): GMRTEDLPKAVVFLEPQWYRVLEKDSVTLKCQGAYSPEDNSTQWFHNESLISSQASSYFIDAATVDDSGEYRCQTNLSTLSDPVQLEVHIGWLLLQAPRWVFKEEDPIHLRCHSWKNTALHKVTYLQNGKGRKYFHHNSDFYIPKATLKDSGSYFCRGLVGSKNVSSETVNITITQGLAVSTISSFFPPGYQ
Chain of FCGR 2b/c (P31994 46-217 limits assumed): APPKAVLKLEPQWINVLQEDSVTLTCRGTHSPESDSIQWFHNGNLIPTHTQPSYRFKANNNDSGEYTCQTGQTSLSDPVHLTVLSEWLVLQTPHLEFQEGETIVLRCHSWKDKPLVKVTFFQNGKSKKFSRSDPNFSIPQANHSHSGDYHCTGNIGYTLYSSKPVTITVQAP
Chain of FCGR 3a (F 176) (P08637 17-208 limits assumed): as the sequence (P08637 17-208 F176V limits assumed) above, with V160F counted along it

In the case of human IgG1 isotype control (antibody), the Kd [1] is reported as 1360 nM and 1590 nM, the Kd [2] is reported as 81.1 nM and 86.5 nM and the Kd [3] is reported as 1110 nM and 796 nM. For the same substance, the Kd [4] was 161 nM and 210 nM, the Kd [5] was 462 nM and 537 nM and the Kd [6] was 0.46 nM. The koff [6] was 0.000245 s⁻¹.
